The nature of series [1]: stability of GAP activity to freezing/thawing or storage. The class given is physicochemical. As to conditions: freezing/thawing or storage at 4° C. for 6 months.
A further series has as its system c-HaRas protein. The series can be described thus: Ras GTPase stimulating activity: hydrolysis of [gamma-32P] GTP bound to c-HaRas protein, by GST fusion NF1 mutants. The class given is biochemical, murine. The text has this:
N- and C- terminal deletion mutants were constructed by subcloning the corresponding PCR DNA fragments into the bacterial expression vector pGEX-2TH, as described in Maruta et al., supra. FIG. 4 sets forth the DNA fragments inserted into the expression vector. The number following NF of each mutant indicates the total amino acid residues included. The DNA fragments inserted include the DNA for human type I NF357, human type II NF1-GRD (amino acid residues 1355 to 1531 in addition to the insert of 21 amino acids) and murine c-HaRas (residues 1-189). The type II-specific insert of 21 amino acids is indicated by the number 21 above a triangle following codon 1371. This 21 amino acid insert is set forth in SEQ ID NO: 2. The solid rectangle indicates the GAP active center of 56 amino acids, whereas the shaded rectangle indicates a supporting domain of 22 amino acids.
The expression vectors were transfected into E.coli and the protein expressed as GST fusion proteins. The fusion proteins were thereafter purified from E.coli as glutathione S-transfeRase fusion proteins and affinity-purified on a glutathione (GSH)-agarose column, as described in Maruta, et al., supra.
The purified proteins were then screened for Ras GTPase stimulating activity. The assay was carried out for each of the NF357 deletion mutants.
The hydrolysis of [gamma-^32 P] GTP bound to c-HaRas protein was determined by incubating with bound protein at 25° C. for 20 minutes in the presence or absence of each NF1 mutant preparation in 100 ul of a buffer containing 50 mMTris-HCl, pH 7.5, 15 mMMgCl2, 2.5 mM EDTA, 3 mM ATP, 1 mM dithiothreitol (DTT) and 0.5 mg/ml bovine serum albumin (BSA), then precipitating the unhydrolyzed [gamma-32P] GTP with charcoal, and finally measuring the radioactivity of the [gamma-32P] inorganic phosphate in the supernatant, as described previously, Maruta et al., supra. Protein concentrations were determined by the Bradford method with BSA as a standard.

B1: GAP1C: the 709-1044 amino acid C-terminal GTPase activating domain of GAP1 (protein, UniProt P20936 709-1044, looked up, fragment)
chain: RARYSMEKIMPEEEYSEFKELILQKELHVVYALSHVCGQDRTLLASILLRIFLHEKLESLLLCTLNDREISMEDEATTLFRATTLASTLMEQYMKATATQFVHHALKDSILKIMESKQSCELSPSKLEKNEDVNTNLTHLLNILSELVEKIFMASEILPPTLRYIYGCLQKSVQHKWPTNTTMRTRVVSGFVFLRLICPAILNPRMFNIISDSPSPIAARTLILVAKSVQNLANLVEFGAKEPYMEGVNPFIKSNKHRMIMFLDELGNVPELPDTTEHSRTDLSRDLAALHEICVAHSDELRTLSNERGAQQHVLKKLLAITELLQQKQNQYTKTN
Take B1: the “GAP activity after treatment/storage” value in series [1] is given as “completely inactivated”.

B2: NF78: NF1 fragment, amino acid residues 1441 to 1518 (protein)
chain: RPFNDFVKSNFDAARRFFLDIASDCPTSDAVNHSLSFISDGNVLALHRLLWNNQEKIGQYLSSNRDHKAVGRRPFDKM
On to B2, for which the “GAP activity after treatment/storage” value in series [1] is reported as “not significantly affected”. Besides, the “Ras GTPase stimulation (in words)” value with c-HaRas protein is reported as “still able to stimulate Ras GTPase activity”. The “Activation (fold), Ras GTPase activation” value with c-HaRas protein (20 ug/ml NF1 mutants, 25° C., 20 minutes) worked out at 6 fold. In addition, the “EC50, concentration required for 50% hydrolysis of GTP bound Ras” value at c-HaRas protein (25° C., 20 minutes) turned out to be 25 µg/mL. Besides, the “reduction of GTPase activity relative to NF91” value in the series on c-HaRas protein (deletion of the C-terminal 13 amino acids from NF91) is listed as 2.5 fold.

For the origin of these results see patent US5580955A, “Fragments of neurofibromin (NF1) and method to reverse activated ras induced malignant transformation in mammalian cells” (Ludwig Institute for Cancer Research, priority 1995, dated 1996).
